The values that follow come from patent USRE50957E1, “Molecular rheostat for cofactor balance” (The Regents of the University of California, priority 2016, dated 2026).

Substrate in data set [1]: NC(=O)c1ccc[n+]([C@@H]2O[C@H](COP(=O)([O-])OP(=O)(O)OC[C@H]3O[C@@H](n4cnc5c(N)ncnc54)[C@H](OP(=O)(O)O)[C@@H]3O)[C@@H](O)[C@H]2O)c1
Nature of the data set: purified protein, by the assay type. The note with it: other: gapDH WT, cofactor, 50 mM tris pH 7.5, 340 nm.

Substrate in data set [2]: NC(=O)c1ccc[n+]([C@@H]2O[C@H](COP(=O)([O-])OP(=O)(O)OC[C@H]3O[C@@H](n4cnc5c(N)ncnc54)[C@H](OP(=O)(O)O)[C@@H]3O)[C@@H](O)[C@H]2O)c1
Nature of the data set: Kinetics and cofactor specificity of triple mutant mGap (mGapDH). The note with it: other: mGapDH, cofactor, 50 mM tris pH 7.5, 340 nm. The format is biochemical, G. stearothermophilus ATCC12980. As to the method:
Enzyme activity and optimization. All of the enzymes used in this work were assayed. The enzymes were assayed in 50 mM tris buffer pH 7.5, 5 mM MgCl, and 5 mM KCl which mirrors the final reaction conditions. The activity of NAD(P)H producing or consuming reactions were monitored at 340 nm. The activity of ATP consuming enzymes were monitored using a coupled assay with Zwf and NADP^+ at 340 nm.
To implement the “molecular rheostat” module, GapDH enzyme was engineered that efficiently uses NADP^+. […] Although the cofactor specificity of GsGap has adjusted before by sequence-based design, the mutant only slightly preferred NADP^+ over NAD^+. To more strongly flip the cofactor specificity of GsGap the crystal structure was examined and basic residues introduced into the loop region proximate to the 2′OH of NAD′ that may help stabilize binding of a 2′ phosphate in NADP^+. A series of mutations were made altering residues D34, L35, and T36 of SEQ ID NO:6. The kinetics and specificity of the best enzyme, a D34A/L35R/T36K triple mutant (herein referred to as mGap), were obtained.

Substitutions are numbered along the chain they refer to. In names and notes the source's numbering stands.

B1: G. stearothermophilus glyceraldehyde-3-phosphate dehydrogenase (GsGap, gapDH WT), wild type, SEQ ID NO:6 (Geobacillus stearothermophilus) (protein)
chain: MAVKVGINGFGRIGRNVFRAALKNPDIEVVAVNDLTDANTLAHLLKYDSVHGRLDAEVSVNGNNLVVNGKEIIVKAERDPENLAWGEIGVDIVVESTGRFTKREDAAKHLEAGAKKVIISAPAKNEDITIVMGVNQDKYDPKAHHVISNASCTTNCLAPFAKVLHEQFGIVRGMMTTVHSYTNDQRILDLPHKDLRRARAAAESIIPTTTGAAKAVALVLPELKGKLNGMAMRVPTPNVSVVDLVAELEKEVTVEEVNAALKAAAEGELKGILAYSEEPLVSRDYNGSTVSSTIDALSTMVIDGKMVKVVSWYDNETGYSHRVVDLAAYIASKGL
As usually defined, the Km is the concentration of substrate that gives half-maximal velocity. Turning to B1, in data set [1], the Km turned out to be 1500 ± 500 µM.

B2: G. stearothermophilus glyceraldehyde-3-phosphate dehydrogenase (GsGap) mutant mGapDH (mGap, gapDH M6), D34A/L35R/T36K relative to SEQ ID NO:6 (Geobacillus … (protein)
chain: B1 chain with D34A, L35R, T36K
In the case of B2, in data set [2], the Michaelis constant (Km) was 300 ± 40 µM.
